Substrate in the series: C=C(O[C@H]1C=C[C@H](C(=O)CCC(=O)O)[C@@H](C(=O)O)[C@@H]1O)C(=O)O
The series is described as follows: purified protein. In kind it is biochemical, Escherichia coli. As to conditions: free enzyme without scaffold, 20 mM Tris, 150 mM NaCl, 0.5 mM AEBSF, 0.1 mM DTT, 0.1% Triton X-100, 10% glycerol, pH 7.4, room temperature.

B1: MenH-RIDD (Escherichia coli K-12) (protein)
chain: MILHAQAKHGKPGLPWLVFLHGFSGDCHEWQEVGEAFADYSRLYVDLPGHGGSAAISVDGFDDVTDLLRKTLVSYNILDFWLVGYSLGGRVAMMAACQGLAGLCGVIVEGGHPGLQNAEQRAERQRSDRQWVQRFLTEPLTAVFADWYQQPVFASLNDDQRRELVALRSNNNGATLAAMLEATSLAVQPDLRANLSARTFAFYYLCGERDSKFRALAAELAADCHVIPRAGHNAHRENPAGVIASLAQILRF
notes: full-length MenH fused to the RIDD docking peptide tag; gene from laboratory stock; free enzyme without FIB1-GFP-RIAD scaffold
For orientation: Km means the substrate concentration at which the rate is half of its maximum. The term kcat denotes the number of substrate molecules converted per active site and unit of time at saturation. B1: the Michaelis constant (Km) was 12.75 ± 1.68 µM and the kcat came to 1.536 ± 0.0972 s⁻¹.

Values taken from PMC12307654, “Time-dependent catalytic activity in aging condensates” (Nature Communications, 2025).
